According to publication PMC4944999 (PLoS ONE, 2016):

Biological target: PeB^GF-Lys, double substituted variant ([change], [change]) of PeB-Lys (mouse)
Experiment: SPR

Substance “hemagglutinin (HA) of influenza A/NewYork/55/2004 H3N2, in monovalent split vaccine (natural protein)” has a fold amount of hemagglutinin bound compared to PeB of 4 fold.
